Measurements taken from paper PMC8486122, “Structural basis for antibody binding to adenylate cyclase toxin reveals RTX linkers as neutralization-sensitive epitopes” (PLoS Pathogens, 2021).

B1: M1H5 Fab (Fab, V domains shown)
VH: EVNLVESGGDLVKPGGSLKLSCAASGFTFSSYGMSWVRQTPDKRLEWVATISSGGTYTYYPDSVKGRFTISRDNAKNTLYLQMSSLKSEDTAMYYCAREIMRGGGYYFDYWSQGTTLTVSS
VL: DIQMIQSTSSLSASLGDRVTISCRASQDISNYLNWYQQKPDGTVKLLIYYTSRLHSGVPSRFSGSGSGTDYSLTISNLEQEDIATYFCQQGNTLPYTFGGGTKLEIK
B2: M2B10 Fab (Fab, V domains shown)
VH: EVQLQQSGAELVRPGTSVKVSCKASGYAFTNYLIEWVKQRPGQGLEWIGVINPGIGNTNYNEKFKGKATLTADKSSSTVYMQLSSLTSDDSAVYFCARGLNYGSSQHWYFDVWGAGTSVTVSS
VL: IVMTQSPAILSASLGERVTMTCTASSSVSSSYLHWYQQKPGSSPKLWIYSTSNLASGVPARFSGSGSGTSYSLTISSMEAEDAATYYCHQYHRSPPTFGAGTKLEIK

How the values were obtained:
[1] = biological target: T1, RTX751 (ACT residues 751–1706) (Bordetella pertussis (strain Tohama I / …, UniProt P0DKX7)); assay: SPR; conditions: both partners purified
T1 construct: also called full RTX domain; full RTX

[2] = biological target: T2, 123cap (cap fusion variant F5: RTX blocks I–III fused to the block V capping structure) (Bordetella pertussis (strain not named …, stabilised)); assay: SPR; conditions: both partners purified
T2 construct: source: E. coli BL21 DE3, purified (Ni-NTA, SEC); not shown: 8xHis, N-terminal, kept
T2 chain: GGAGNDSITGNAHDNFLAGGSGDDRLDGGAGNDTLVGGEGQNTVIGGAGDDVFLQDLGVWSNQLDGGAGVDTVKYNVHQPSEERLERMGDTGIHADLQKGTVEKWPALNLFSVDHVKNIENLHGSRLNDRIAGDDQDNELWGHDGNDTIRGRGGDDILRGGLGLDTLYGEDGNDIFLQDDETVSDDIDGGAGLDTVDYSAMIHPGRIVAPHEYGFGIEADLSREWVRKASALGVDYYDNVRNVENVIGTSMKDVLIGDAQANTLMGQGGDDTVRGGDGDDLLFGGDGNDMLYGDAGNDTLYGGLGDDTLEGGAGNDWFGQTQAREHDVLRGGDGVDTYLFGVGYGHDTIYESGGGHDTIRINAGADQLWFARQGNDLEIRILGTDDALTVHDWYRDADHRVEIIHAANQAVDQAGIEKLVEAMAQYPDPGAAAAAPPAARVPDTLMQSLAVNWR

Binder	Kd [1] [pM]	Kd [2] [pM]
B1	800	700
B2	750	600
